Assay results reported in article PMC5430726, “Grb2 carboxyl-terminal SH3 domain can bivalently associate with two ligands, in an SH3 dependent manner” (Scientific Reports, 2017).

How the values were obtained:
[1] = target: T1, Grb2 C-terminal SH3 domain (SH3C), residues 155-217 (mouse, UniProt Q60631 155-217); assay: ITC; SLP65 peptide titrated into the preformed Grb2 SH3C-Vav SH3N binary complex (gives Complex 1, Vav displaced); 20 mM sodium phosphate, 100 mM NaCl, pH 6.0, 25 °C; details: both partners purified
T1 construct: Uniformly 15N or 15N,13C labelled in the NMR titrations; monomer by glutaraldehyde cross-linking and SEC; also called Grb2 SH3C; Grb2 CSH3 domain; source: E. coli, purified (Ni2+-NTA chromatography); not shown: His tag, N-terminal, cleaved

[2] = target: T1, Grb2 C-terminal SH3 domain (SH3C), …; assay: ITC; free Grb2 SH3C in the cell (20 uM for the peptide, 40 uM for Vav) titrated with 280 uM SLP65 peptide or 600 uM Vav SH3N; 20 mM sodium phosphate, 100 mM NaCl, pH 6.0, 25 °C; one-site binding model; details: both partners purified

T1 sequence (Q60631 155-217): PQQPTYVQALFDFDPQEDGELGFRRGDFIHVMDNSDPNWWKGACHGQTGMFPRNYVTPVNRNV

- Kd [2]: 3.55 ± 0.2 µM
- dH [2]: -6.67 ± 0.15 kcal/mol
- stoichiometry N [2]: 0.87 ± 0.02
B1: SLP65 peptide Ace-EKAPMVNRSTKPNSSS-NH2 (residues 201-216 of mouse SLP65) (peptide)
peptide: Ac-EKAPMVNRSTKPNSSS-NH2
notes: SLP65, mouse, residues 201-216; also called synthetic peptide; source: synthetic peptide
- Kd with Vav SH3N prebound to Grb2 SH3C (Vav displaced) [1]: 33.3 ± 1.1 µM
- dH with Vav SH3N prebound to Grb2 SH3C (Vav displaced) [1]: -5.9 ± 0.04 kcal/mol
